Data on 39 molecules can be found in patent US20260274955A1 (JANUX THERAPEUTICS, published 2026).

No end group written: not given here.
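For Octet signal in this document: association and dissociation phases tracked in real time, with kinetics fitted to a 1:1 interaction model.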
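For t1/2 in this document: association and dissociation phases tracked in real time, with kinetics fitted to a 1:1 interaction model.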

One assay concerns the target T1, Ab-1.
T1 construct: also called anti-CD28 scFv harbored in Ab-1
Briefly: binding ELISA, peptide captured, Ab-1 titrated. Background: An ELISA detects its analyte on a solid surface through an enzyme-linked reagent.
On to ADWCPRDLWVHCFA (cysteine pairing not given here; also: biotinylated, site not given here) [Peptide-2], for which a half-maximal response (EC50) required 75.9 nM.
As for FDWCPRDLWVHCFA (cysteine pairing not given here; also: biotinylated, site not given here) [Peptide-13], the 50% effective concentration (EC50) (as a rule, the concentration giving half of the maximal effect) is 39.3 nM.
Take VDWCPRDLWVHCFA (cysteine pairing not given here; also: biotinylated, site not given here) [Peptide-19]: the concentration giving a half-maximal response (EC50) is 32.5 nM.
For NDWCPRDLWVHCFA (cysteine pairing not given here; also: biotinylated, site not given here) [Peptide-4], the EC50 amounted to 84.3 nM.
With LDWCPRDLWVHCFA (cysteine pairing not given here; also: biotinylated, site not given here) [Peptide-11], the EC50 turned out to be 23.4 nM.
The molecule HDWCPRDLWVHCFA (cysteine pairing not given here; also: biotinylated, site not given here) [Peptide-9] registered a concentration giving a half-maximal response (EC50) of 45.4 nM. Compared with the last molecule, the EC50 is about 1.9-fold higher.
On the same count and under the same terms, to SDWCPRDLWVHCFA (cysteine pairing not given here; also: biotinylated, site not given here) [Peptide-15] belongs 66.5 nM; to YDWCPRDLWVHCFA (cysteine pairing not given here; also: biotinylated, site not given here) [Peptide-18], 32.2 nM; to GDWCPRDLWVHCFA (cysteine pairing not given here; also: biotinylated, site not given here) [Peptide-8], 73.9 nM.
DDWCPRDLWVHCFA (cysteine pairing not given here; also: biotinylated, site not given here) [Peptide-5] showed a 50% effective concentration (EC50) of 86.8 nM.
Take WDWCPRDLWVHCFA (cysteine pairing not given here; also: biotinylated, site not given here) [Peptide-17]: a half-maximal effect (EC50) was put at 21.7 nM.
Still for that read-out and setting: to IDWCPRDLWVHCFA (cysteine pairing not given here; also: biotinylated, site not given here) [Peptide-10] belongs 44.9 nM; to PDWCPRDLWVHCFA (cysteine pairing not given here; also: biotinylated, site not given here) [Peptide-14], 102 nM.

Another assay has as its target T2, anti-CD28 Fab (SEQ ID NOs: 202, 203).
T2 construct: biotinylated when captured in the phage ELISAs
Briefly: binding ELISA, peptide captured, anti-CD28 Fab titrated.
In turn, TCSAGATWPWPICL (cysteine pairing not given here; also: biotinylated, site not given here) [Peptide-89] showed a half-maximal effective concentration (EC50) of 2.1 nM.
The same measure, in the same setting: with TCAAGAAWPWPQCL (cysteine pairing not given here; also: biotinylated, site not given here) [Peptide-92] the figure was 2.6 nM; with TCSAGASYPWPLCL (cysteine pairing not given here; also: biotinylated, site not given here) [Peptide-91], 5.3 nM; with TCSAGAAYPWPLCL (cysteine pairing not given here; also: biotinylated, site not given here) [Peptide-97], 4.4 nM.
For LCAAGASWPWPVCL (cysteine pairing not given here; also: biotinylated, site not given here) [Peptide-90], the EC50 stood at 13.1 nM.

For the next assay, the target named is T1, Ab-1. Put plainly: competition ELISA, peptide titrated vs 1 nM Ab-1 binding plate-bound CD28.
With ADWCPRDLWVHCFA (cysteine pairing not given here; also: biotinylated, site not given here) [Peptide-2], the half-maximal inhibitory concentration (IC50) – broadly, the point on the concentration scale where inhibition reaches its midpoint – was determined as 2000 nM.
The same measure, in the same setting: to FDWCPRDLWVHCFA (cysteine pairing not given here; also: biotinylated, site not given here) [Peptide-13] belongs 780 nM; to VDWCPRDLWVHCFA (cysteine pairing not given here; also: biotinylated, site not given here) [Peptide-19], 4420 nM; to NDWCPRDLWVHCFA (cysteine pairing not given here; also: biotinylated, site not given here) [Peptide-4], 5030 nM.
The same measure, in the same setting: to LDWCPRDLWVHCFA (cysteine pairing not given here; also: biotinylated, site not given here) [Peptide-11] belongs 630 nM.
Turning to HDWCPRDLWVHCFA (cysteine pairing not given here; also: biotinylated, site not given here) [Peptide-9], the half-inhibitory concentration (IC50) was 2180 nM.
Turning to SDWCPRDLWVHCFA (cysteine pairing not given here; also: biotinylated, site not given here) [Peptide-15], the IC50 was found to be 2630 nM.
Regarding YDWCPRDLWVHCFA (cysteine pairing not given here; also: biotinylated, site not given here) [Peptide-18], the IC50 turned out to be 3250 nM.
Still for that read-out and setting: to GDWCPRDLWVHCFA (cysteine pairing not given here; also: biotinylated, site not given here) [Peptide-8] belongs 7060 nM.
Molecule DDWCPRDLWVHCFA (cysteine pairing not given here; also: biotinylated, site not given here) [Peptide-5] yielded an IC50 of 4460 nM.
Consider WDWCPRDLWVHCFA (cysteine pairing not given here; also: biotinylated, site not given here) [Peptide-17], for which the concentration for half-maximal inhibition (IC50) was determined as 2800 nM.
With IDWCPRDLWVHCFA (cysteine pairing not given here; also: biotinylated, site not given here) [Peptide-10], the half-maximal inhibitory concentration (IC50) amounted to 2660 nM.
Turning to PDWCPRDLWVHCFA (cysteine pairing not given here; also: biotinylated, site not given here) [Peptide-14], the IC50 turned out to be 8340 nM.

The target of a further assay is T1, Ab-1. Briefly: BLI (Octet), 200 nM peptide, 100 nM Ab-1. (In BLI a coated tip is dipped into the sample, and binding shifts an interference pattern.)
For ADWCPRDLWVHCFA (cysteine pairing not given here; also: biotinylated, site not given here) [Peptide-2], the Octet signal is 0.7 and the t1/2 amounted to 3.1 min.
Taken in the same sequence, the figures for FDWCPRDLWVHCFA (cysteine pairing not given here; also: biotinylated, site not given here) [Peptide-13] were 1.01 and 3.3 min.
Regarding VDWCPRDLWVHCFA (cysteine pairing not given here; also: biotinylated, site not given here) [Peptide-19], the Octet signal stood at 0.919 and the t1/2 turned out to be 2.9 min.
The molecule NDWCPRDLWVHCFA (cysteine pairing not given here; also: biotinylated, site not given here) [Peptide-4] registered an Octet signal of 0.434 and a t1/2 of 4 min.
In turn, LDWCPRDLWVHCFA (cysteine pairing not given here; also: biotinylated, site not given here) [Peptide-11] returned an Octet signal of 1.37 and a t1/2 of 4.5 min.
The corresponding values for HDWCPRDLWVHCFA (cysteine pairing not given here; also: biotinylated, site not given here) [Peptide-9] are 0.737 and 3 min.
Taken in the same sequence, the figures for SDWCPRDLWVHCFA (cysteine pairing not given here; also: biotinylated, site not given here) [Peptide-15] were 0.551 and 2.9 min.
Regarding YDWCPRDLWVHCFA (cysteine pairing not given here; also: biotinylated, site not given here) [Peptide-18], the Octet signal came out at 0.849 and the t1/2 worked out at 2.9 min.
Regarding GDWCPRDLWVHCFA (cysteine pairing not given here; also: biotinylated, site not given here) [Peptide-8], the Octet signal amounted to 0.479 and the t1/2 is 3.9 min.
The molecule DDWCPRDLWVHCFA (cysteine pairing not given here; also: biotinylated, site not given here) [Peptide-5] had an Octet signal of 0.461 and a t1/2 of 4.2 min.
Turning to WDWCPRDLWVHCFA (cysteine pairing not given here; also: biotinylated, site not given here) [Peptide-17], the Octet signal came to 1.15 and the t1/2 was found to be 4.1 min.
With IDWCPRDLWVHCFA (cysteine pairing not given here; also: biotinylated, site not given here) [Peptide-10], the Octet signal came to 0.845 and the t1/2 is 3.1 min.
As to PDWCPRDLWVHCFA (cysteine pairing not given here; also: biotinylated, site not given here) [Peptide-14], the Octet signal amounted to 0.328 and the t1/2 came out at 3.4 min.

The target of another assay is anti-CD28 Fab (SEQ ID NOs: 202, 203). Briefly: phage binding ELISA; biotinylated anti-CD28 Fab captured on neutravidin plate, clonal phage supernatant, anti-M13-HRP detection.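 Also: before crude clonal phage supernatants were added, wells were preincubated with CD28 antigen in blocking buffer or with blocking buffer only.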
As for RCKAGVPYKWPMCL [Phage-1233], the “Anti-CD28 Fab (SEQ ID NOs: 202, 203) signal” value (shortened to “Anti-CD28 Fab”) worked out at 0.87.
As for LCEAGFNYDWPRCL [Phage-1236], the “Anti-CD28 Fab” value turned out to be 0.85.
In the case of WCSAVFSYQWPPCF [Phage-1242], the “Anti-CD28 Fab” value was 0.78.
Take TCAAGASWDWPFCF [Phage-1237]: the “Anti-CD28 Fab” value is 0.82.
Same read-out and setting: with SCAAGATYEWPTCL [Phage-1239] the figure was 0.81; with TCSAGAMYNWPECF [Phage-1229], 0.92; with TCAAGATWVWPTCF [Phage-1228], 0.92.
Turning to VCAAGAAYPWPACL [Phage-1226], the “Anti-CD28 Fab” value amounted to 0.93.
Turning to SCSAGAMWLWPECF [Phage-1241], the “Anti-CD28 Fab” value came out at 0.8.
Still for that read-out and setting: with TCSAGATYKWPTCL [Phage-1222] the figure was 0.97; with MCAAGAMYNWPLCL [Phage-1224], 0.95; with QCAAGFSYTWPECY [Phage-1231], 0.9.
Turning to WCAAFFHYPWPQCF [Phage-1232], the “Anti-CD28 Fab” value was found to be 0.87.
On to SCAAGASYSWPLCF [Phage-1225], for which the “Anti-CD28 Fab” value worked out at 0.95.
As for SCAAGAHWSWPACL [Phage-1223], the “Anti-CD28 Fab” value worked out at 0.97.
In the case of TCAAGATYEWPSCI [Phage-1234], the “Anti-CD28 Fab” value was found to be 0.86.
As to TCAAGAKYVWPLCF [Phage-1235], the “Anti-CD28 Fab” value was 0.85.
ECGWEPGQHWRVCF [Phage-1238]: the “Anti-CD28 Fab” value is 0.82.
On the same count and under the same terms, to TCSAGAMYSWPLCI [Phage-1230] belongs 0.91.
Regarding SCAAGATYKWPACF [Phage-1240], the “Anti-CD28 Fab” value amounted to 0.8.
On to TCSAGAHYPWPMCL [Phage-1227], for which the “Anti-CD28 Fab” value was 0.93.
